Test results published in US20250018036A1 (published 2025).

B1: SOX2 TCR #05 (TCR, V domains shown)
Valpha: AQKITQTQPGMFVQEKEAVTLDCTYDTSDPSYGLFWYKQPSSGEMIFLIYQGSYDQQNATEGRYSLNFQKARKSANLVISASQLGDSAMYFCAMREGMGFQKLVFGTGTRLLVSP
Vbeta: DVKVTQSSRYLVKRTGEKVFLECVQDMDHENMFWYRQDPGLGLRLIYFSYDVKMKEKGDIPEGYSVSREKKERFSLILESASTNQTSMYLCASRPEMGGRGNQPQHFGDGTRLSIL
B2: SOX2 TCR #10 (TCR, V domains shown)
Valpha: GEDVEQSLFLSVREGDSSVINCTYTDSSSTYLYWYKQEPGAGLQLLTYIFSNMDMKQDQRLTVLLNKKDKHLSLRIADTQTGDSAIYFCAGPLGGSQGNLIFGKGTKLSVKP
Vbeta: EADIYQTPRYLVIGTGKKITLECSQTMGHDKMYWYQQDPGMELHLIHYSYGVNSTEKGDLSSESTVSRIRTEHFPLTLESARPSHTSQYLCASSRGPEAFFGQGTRLTVV

Target: T1, SOX2 peptide on HLA-A*02:01 (human)
T1 peptide: YLPGAEVPEPA
Assay: multimer staining
Method: Methods: TCR expression vectors were sequenced after Gibson assembly to confirm successful insertion of the TCR expression cassettes into the pRRLSIN vector. Lentiviral particles were generated using the 293T/17 packaging cell line and the Effectene kit (Qiagen). CD8⁺ T cells were isolated from a healthy donor (18648) using negative magnetic separation (Easy Sep Kit, […] Technologies), stimulated for 4 hours with anti-CD3/CD28 beads (Dynabeads), and transduced with SOX2-TCR-encoding lentiviral particles collected from 293T/17 cells. Transduced CD8⁺ T cells were assessed for tetramer staining on day 5 post transduction. SOX2-TCR⁺ CD8⁺ T cells are sorted for rapid expansion, and assessed for response to different peptide concentrations, and target killing.

Row | Binder | binding result
1 | B1 | recognises
2 | B2 | recognises
